Source: patent publication US20250250357A1 (NANJING ZAIMING PHARMACEUTICAL, published 2025)

T1: monkey MSLN on HEK293T-monkey MSLN recombinant cells (monkey)
T1 construct: Full-length precursor as transfected; processing on the cell is not described; also called HEK293-monkey MSLN
T1 chain: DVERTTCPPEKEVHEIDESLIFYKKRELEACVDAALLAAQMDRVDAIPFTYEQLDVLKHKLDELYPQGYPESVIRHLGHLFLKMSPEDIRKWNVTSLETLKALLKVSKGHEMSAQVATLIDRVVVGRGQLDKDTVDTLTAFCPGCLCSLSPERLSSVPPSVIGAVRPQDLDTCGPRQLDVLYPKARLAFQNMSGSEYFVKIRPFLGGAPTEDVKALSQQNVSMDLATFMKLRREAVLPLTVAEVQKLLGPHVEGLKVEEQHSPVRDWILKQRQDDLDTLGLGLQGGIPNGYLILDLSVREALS


Experiments:
[1] = biological target: T2, human MSLN on OVCAR3 tumor cells (human, UniProt Q13421 296-598); assay: FACS, OVCAR3 cells
T2 construct: whole, on cells; also called human MSLN protein
T2 sequence (Q13421 other isoform, or with tags, fused parts or gaps): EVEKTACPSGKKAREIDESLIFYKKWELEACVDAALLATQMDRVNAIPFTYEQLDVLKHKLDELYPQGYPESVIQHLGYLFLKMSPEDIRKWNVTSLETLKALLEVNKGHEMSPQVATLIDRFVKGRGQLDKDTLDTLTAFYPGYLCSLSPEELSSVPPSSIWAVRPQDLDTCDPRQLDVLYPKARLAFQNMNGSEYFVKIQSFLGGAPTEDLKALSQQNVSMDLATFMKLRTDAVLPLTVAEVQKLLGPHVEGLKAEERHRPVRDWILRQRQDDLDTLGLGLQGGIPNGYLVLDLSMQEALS

[2] = biological target: T3, human MSLN-R3 on HEK293T-hMSLN-R3 recombinant cells (human, UniProt Q13421 487-606); assay: FACS, HEK293T-hMSLN-R3 cells
T3 construct: the C-terminal limit is uncertain; also called human MSLN-R3 membrane protein
T3 sequence (Q13421 495-614): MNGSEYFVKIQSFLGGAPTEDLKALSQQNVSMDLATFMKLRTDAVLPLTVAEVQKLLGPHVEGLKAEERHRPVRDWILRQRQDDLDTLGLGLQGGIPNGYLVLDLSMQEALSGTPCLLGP

[3] = biological target: T1, monkey MSLN on HEK293T-monkey MSLN …; assay: FACS, HEK293T-monkey MSLN cells
[4] = biological target: T4, human MSLN-hFc recombinant protein (human, UniProt Q13421 296-580); assay: SPR (Biacore 8K), MSLN-hFc captured, antibody injected
T4 construct: Captured by an anti-human IgG antibody on the chip; also called human MSLN protein; Acro MSN-H5253
T4 sequence (Q13421 other isoform, or with tags, fused parts or gaps): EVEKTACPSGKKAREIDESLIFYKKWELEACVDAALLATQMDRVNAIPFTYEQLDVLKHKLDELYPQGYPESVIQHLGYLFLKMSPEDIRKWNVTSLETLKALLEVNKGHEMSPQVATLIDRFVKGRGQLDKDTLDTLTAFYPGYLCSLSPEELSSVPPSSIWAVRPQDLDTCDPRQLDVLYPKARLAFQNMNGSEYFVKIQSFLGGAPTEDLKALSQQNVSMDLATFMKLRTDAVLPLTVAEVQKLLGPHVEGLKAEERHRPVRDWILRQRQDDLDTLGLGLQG

Binder | EC50 [1] [nM] | Maximum_MFI [1] [MFI] | EC50 [2] [nM] | Maximum_MFI [2] [MFI] | EC50 [3] [nM] | Maximum_MFI [3] [MFI] | Kd [4] [nM] | koff [4] [s⁻¹] | kon [4] [M⁻¹ s⁻¹]
F7.44.20-H1 (scFv, not shown: small tags and cut ends, also called S009-F7.44.20 humanized antibody VH1 + VL1) scFv: EVQLVQSGAEVKKPGASVKVSCKASGYTFTDYNMDWVRQAPGQGLEWMGDINPSTGGTIYNQKFNGRVTMTEDKSTSTVYMELSSLRSEDTAVYYCARRRIGTGYFDVWGQGTTVTVSSGGGGSGGGGSGGGGSEIVLTQSPDFQSVTPKEKVTITCSASSSVISSYLSWYQQKPDQSPKLLIYRTSNLASGVPSRFSGSGSGTDFTLTINSLEAEDAATYYCHQWSSFPYTFGGGTKVEIK | 0.4 | 1820 | 1.72 | 1750 | 6.05 | 6550 | – | – | –
F7.44.20-H13 (scFv, not shown: small tags and cut ends, also called S009-F7.44.20 humanized antibody VH2a + VL1) scFv: EVQLVQSGAEVKKPGASVKVSCKASGYTFTDYNMDWVRQAPGQGLEWMGDINPSTGGTIYNQKFSGRVTMTEDKSASTVYMELSSLRSEDTAVYYCARRRIGTGYFDVWGQGTTVTVSSGGGGSGGGGSGGGGSEIVLTQSPDFQSVTPKEKVTITCSASSSVISSYLSWYQQKPDQSPKLLIYRTSNLASGVPSRFSGSGSGTDFTLTINSLEAEDAATYYCHQWSSFPYTFGGGTKVEIK | 1.33 | 2150 | 0.63 | 1600 | 2.35 | 9320 | – | – | –
F7.44.20-H6 (scFv, not shown: small tags and cut ends, also called S009-F7.44.20 humanized antibody VH1a + VL2) scFv: EVQLVQSGAEVKKPGASVKVSCKASGYTFTDYNMDWVRQAPGQGLEWMGDINPSTGGTIYNQKFQGRVTMTEDKSTSTVYMELSSLRSEDTAVYYCARRRIGTGYFDVWGQGTTVTVSSGGGGSGGGGSGGGGSEIVLTQSPDFQSVTPKEKVTITCSASSSVISSYLSWYQQKPDQSPKLLIYRTSNLASGVPSRFSGSGSGTDYTLTINSLEAEDAATYYCHQWSSFPYTFGGGTKVEIK | 1.6 | 1830 | 3.44 | 1540 | 15 | 6020 | – | – | –
F7.44.20-H14 (scFv, not shown: small tags and cut ends, also called S009-F7.44.20 humanized antibody VH2a + VL2) scFv: EVQLVQSGAEVKKPGASVKVSCKASGYTFTDYNMDWVRQAPGQGLEWMGDINPSTGGTIYNQKFSGRVTMTEDKSASTVYMELSSLRSEDTAVYYCARRRIGTGYFDVWGQGTTVTVSSGGGGSGGGGSGGGGSEIVLTQSPDFQSVTPKEKVTITCSASSSVISSYLSWYQQKPDQSPKLLIYRTSNLASGVPSRFSGSGSGTDYTLTINSLEAEDAATYYCHQWSSFPYTFGGGTKVEIK | 1.83 | 2140 | 1.52 | 1440 | 7.37 | 8130 | – | – | –
F7.44.20-H3 (scFv, not shown: small tags and cut ends, also called S009-F7.44.20 humanized antibody VH1 + VL3) scFv: EVQLVQSGAEVKKPGASVKVSCKASGYTFTDYNMDWVRQAPGQGLEWMGDINPSTGGTIYNQKFNGRVTMTEDKSTSTVYMELSSLRSEDTAVYYCARRRIGTGYFDVWGQGTTVTVSSGGGGSGGGGSGGGGSEIVLTQSPATLSLSPGERATLSCSASSSVISSYLSWYQQKPGQSPRLLIYRTSNLASGIPARFSGSGSGTDYTLTISSLEPEDFAVYYCHQWSSFPYTFGGGTKVEIK | 0.69 | 1810 | 1.57 | 1490 | 7.34 | 7000 | – | – | –
F7.44.20-H16 (scFv, not shown: small tags and cut ends, also called S009-F7.44.20 humanized antibody VH2a + VL4) scFv: EVQLVQSGAEVKKPGASVKVSCKASGYTFTDYNMDWVRQAPGQGLEWMGDINPSTGGTIYNQKFSGRVTMTEDKSASTVYMELSSLRSEDTAVYYCARRRIGTGYFDVWGQGTTVTVSSGGGGSGGGGSGGGGSEIVLTQSPATLSLSPGERATLSCSASSSVISSYLSWYQQKPGSSPRLLIYRTSNLASGIPARFSGSGSGTDYTLTISSLEPEDFAVYYCHQWSSFPYTFGGGTKVEIK | 1.66 | 1650 | 2.23 | 1440 | 12.2 | 5980 | 1.85 | 0.000679 | 367000
F7.44.20-H15 (scFv, not shown: small tags and cut ends, also called S009-F7.44.20 humanized antibody VH2a + VL3) scFv: EVQLVQSGAEVKKPGASVKVSCKASGYTFTDYNMDWVRQAPGQGLEWMGDINPSTGGTIYNQKFSGRVTMTEDKSASTVYMELSSLRSEDTAVYYCARRRIGTGYFDVWGQGTTVTVSSGGGGSGGGGSGGGGSEIVLTQSPATLSLSPGERATLSCSASSSVISSYLSWYQQKPGQSPRLLIYRTSNLASGIPARFSGSGSGTDYTLTISSLEPEDFAVYYCHQWSSFPYTFGGGTKVEIK | 1.77 | 1930 | 0.91 | 1500 | 4.47 | 8090 | – | – | –
F7.44.20-H4 (scFv, not shown: small tags and cut ends, also called S009-F7.44.20 humanized antibody VH1 + VL4) scFv: EVQLVQSGAEVKKPGASVKVSCKASGYTFTDYNMDWVRQAPGQGLEWMGDINPSTGGTIYNQKFNGRVTMTEDKSTSTVYMELSSLRSEDTAVYYCARRRIGTGYFDVWGQGTTVTVSSGGGGSGGGGSGGGGSEIVLTQSPATLSLSPGERATLSCSASSSVISSYLSWYQQKPGSSPRLLIYRTSNLASGIPARFSGSGSGTDYTLTISSLEPEDFAVYYCHQWSSFPYTFGGGTKVEIK | 1.26 | 1680 | 2.64 | 1470 | 10.4 | 6450 | – | – | –
F7.44.20-H12 (scFv, not shown: small tags and cut ends, also called S009-F7.44.20 humanized antibody VH2 + VL4) scFv: EVQLVQSGAEVKKPGASVKVSCKASGYTFTDYNMDWVRQAPGQGLEWMGDINPSTGGTIYNQKFNGRVTMTEDKSASTVYMELSSLRSEDTAVYYCARRRIGTGYFDVWGQGTTVTVSSGGGGSGGGGSGGGGSEIVLTQSPATLSLSPGERATLSCSASSSVISSYLSWYQQKPGSSPRLLIYRTSNLASGIPARFSGSGSGTDYTLTISSLEPEDFAVYYCHQWSSFPYTFGGGTKVEIK | 1.5 | 2100 | 2.88 | 1410 | 10.3 | 6670 | – | – | –

Now from value to binder:

EC50 [1] [nM] | Maximum_MFI [1] [MFI] | EC50 [2] [nM] | Maximum_MFI [2] [MFI] | EC50 [3] [nM] | Maximum_MFI [3] [MFI] | Kd [4] [nM] | koff [4] [s⁻¹] | kon [4] [M⁻¹ s⁻¹] | Binder
0.99 | 1820 | 1.71 | 1690 | 5.5 | 6950 | – | – | – | F7.44.20-H2 (scFv, not shown: small tags and cut ends, also called S009-F7.44.20 humanized antibody VH1 + VL2) scFv: EVQLVQSGAEVKKPGASVKVSCKASGYTFTDYNMDWVRQAPGQGLEWMGDINPSTGGTIYNQKFNGRVTMTEDKSTSTVYMELSSLRSEDTAVYYCARRRIGTGYFDVWGQGTTVTVSSGGGGSGGGGSGGGGSEIVLTQSPDFQSVTPKEKVTITCSASSSVISSYLSWYQQKPDQSPKLLIYRTSNLASGVPSRFSGSGSGTDYTLTINSLEAEDAATYYCHQWSSFPYTFGGGTKVEIK
1.21 | 2320 | 0.88 | 1470 | 4.25 | 9020 | – | – | – | F7.44.20-H10 (scFv, not shown: small tags and cut ends, also called S009-F7.44.20 humanized antibody VH2 + VL2) scFv: EVQLVQSGAEVKKPGASVKVSCKASGYTFTDYNMDWVRQAPGQGLEWMGDINPSTGGTIYNQKFNGRVTMTEDKSASTVYMELSSLRSEDTAVYYCARRRIGTGYFDVWGQGTTVTVSSGGGGSGGGGSGGGGSEIVLTQSPDFQSVTPKEKVTITCSASSSVISSYLSWYQQKPDQSPKLLIYRTSNLASGVPSRFSGSGSGTDYTLTINSLEAEDAATYYCHQWSSFPYTFGGGTKVEIK
0.61 | 1950 | 1.14 | 1680 | 3.74 | 7210 | – | – | – | F7.44.20-H11 (scFv, not shown: small tags and cut ends, also called S009-F7.44.20 humanized antibody VH2 + VL3) scFv: EVQLVQSGAEVKKPGASVKVSCKASGYTFTDYNMDWVRQAPGQGLEWMGDINPSTGGTIYNQKFNGRVTMTEDKSASTVYMELSSLRSEDTAVYYCARRRIGTGYFDVWGQGTTVTVSSGGGGSGGGGSGGGGSEIVLTQSPATLSLSPGERATLSCSASSSVISSYLSWYQQKPGQSPRLLIYRTSNLASGIPARFSGSGSGTDYTLTISSLEPEDFAVYYCHQWSSFPYTFGGGTKVEIK
1.04 | 1880 | 1.95 | 1650 | 7.09 | 6320 | – | – | – | F7.44.20-H8 (scFv, not shown: small tags and cut ends, also called S009-F7.44.20 humanized antibody VH1a + VL4) scFv: EVQLVQSGAEVKKPGASVKVSCKASGYTFTDYNMDWVRQAPGQGLEWMGDINPSTGGTIYNQKFQGRVTMTEDKSTSTVYMELSSLRSEDTAVYYCARRRIGTGYFDVWGQGTTVTVSSGGGGSGGGGSGGGGSEIVLTQSPATLSLSPGERATLSCSASSSVISSYLSWYQQKPGSSPRLLIYRTSNLASGIPARFSGSGSGTDYTLTISSLEPEDFAVYYCHQWSSFPYTFGGGTKVEIK
1.11 | 1840 | 2.12 | 1510 | 9.24 | 6130 | – | – | – | F7.44.20-H7 (scFv, not shown: small tags and cut ends, also called S009-F7.44.20 humanized antibody VH1a + VL3) scFv: EVQLVQSGAEVKKPGASVKVSCKASGYTFTDYNMDWVRQAPGQGLEWMGDINPSTGGTIYNQKFQGRVTMTEDKSTSTVYMELSSLRSEDTAVYYCARRRIGTGYFDVWGQGTTVTVSSGGGGSGGGGSGGGGSEIVLTQSPATLSLSPGERATLSCSASSSVISSYLSWYQQKPGQSPRLLIYRTSNLASGIPARFSGSGSGTDYTLTISSLEPEDFAVYYCHQWSSFPYTFGGGTKVEIK
